# In US20210155689A1 (SHANGHAI PHARMAEXPLORER, published 2021):
# T1: human LAG-3 (full length, on the cell surface) (human, UniProt P18627 23-525)
# T1 construct: Full-length human LAG-3 expressed on cells; also called HEK293-hLAG-3; HEK293 cells transfected with LAG-3 gene
# T1 sequence: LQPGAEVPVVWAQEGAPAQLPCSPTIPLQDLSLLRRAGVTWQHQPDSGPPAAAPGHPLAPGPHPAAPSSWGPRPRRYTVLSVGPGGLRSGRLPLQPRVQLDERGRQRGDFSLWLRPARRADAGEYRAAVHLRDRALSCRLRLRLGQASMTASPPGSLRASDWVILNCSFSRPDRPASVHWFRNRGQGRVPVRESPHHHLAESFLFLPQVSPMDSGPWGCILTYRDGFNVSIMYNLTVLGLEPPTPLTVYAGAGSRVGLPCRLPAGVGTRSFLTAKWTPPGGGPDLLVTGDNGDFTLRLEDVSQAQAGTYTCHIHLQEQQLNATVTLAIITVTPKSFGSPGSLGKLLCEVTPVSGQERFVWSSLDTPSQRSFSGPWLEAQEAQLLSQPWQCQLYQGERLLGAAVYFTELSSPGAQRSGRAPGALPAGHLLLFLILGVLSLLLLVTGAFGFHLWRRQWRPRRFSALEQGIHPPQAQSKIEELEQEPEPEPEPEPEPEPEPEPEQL
# T2: monkey LAG-3 (full length, on the cell surface) (monkey, UniProt P18627 24-525 (human entry))
# T2 construct: also called HEK293-cLAG-3; monkey LAG-3 protein on the cell surface
# T2 chain: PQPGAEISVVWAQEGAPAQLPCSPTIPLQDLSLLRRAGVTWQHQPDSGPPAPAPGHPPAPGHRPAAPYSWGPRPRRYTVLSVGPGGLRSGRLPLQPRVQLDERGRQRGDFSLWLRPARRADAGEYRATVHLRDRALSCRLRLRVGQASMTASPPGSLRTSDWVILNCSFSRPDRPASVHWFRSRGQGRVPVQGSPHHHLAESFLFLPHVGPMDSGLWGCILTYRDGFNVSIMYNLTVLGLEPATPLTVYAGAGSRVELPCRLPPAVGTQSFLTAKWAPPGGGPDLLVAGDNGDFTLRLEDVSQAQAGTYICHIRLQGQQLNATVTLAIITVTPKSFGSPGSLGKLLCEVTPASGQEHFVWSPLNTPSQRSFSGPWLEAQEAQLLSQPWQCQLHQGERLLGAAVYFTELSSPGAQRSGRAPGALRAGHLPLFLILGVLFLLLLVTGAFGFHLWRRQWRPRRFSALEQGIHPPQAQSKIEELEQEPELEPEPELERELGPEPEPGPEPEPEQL
# T3: hFc tagged monkey LAG-3 protein (cLAG-3-hFc protein) (monkey; human)
# T3 construct: Made in HEK293 cells; also called monkey LAG-3 extracellular domain protein; not shown: human IgG Fc fragment (hFc) of the pCpC vector
# T3 chain: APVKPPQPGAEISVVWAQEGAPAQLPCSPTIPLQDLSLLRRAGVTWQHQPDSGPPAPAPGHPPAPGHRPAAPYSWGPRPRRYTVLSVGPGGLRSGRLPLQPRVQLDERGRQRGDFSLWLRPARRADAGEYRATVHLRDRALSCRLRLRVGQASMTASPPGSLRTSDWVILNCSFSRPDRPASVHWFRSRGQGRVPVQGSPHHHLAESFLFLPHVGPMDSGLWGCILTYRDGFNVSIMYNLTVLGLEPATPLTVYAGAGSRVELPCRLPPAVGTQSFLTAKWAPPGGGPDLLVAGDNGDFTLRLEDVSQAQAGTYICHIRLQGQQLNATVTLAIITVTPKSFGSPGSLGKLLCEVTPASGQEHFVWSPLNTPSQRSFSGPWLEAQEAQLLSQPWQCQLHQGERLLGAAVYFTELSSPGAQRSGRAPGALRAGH
# T4: monkey LAG-3 on cells (HEK293-cLAG-3 stable cell line) (monkey, UniProt P18627 24-525 (human entry))
# T4 construct: Full-length monkey (Chinese monkey) LAG-3 gene expressed on HEK293 cells
# T4 chain: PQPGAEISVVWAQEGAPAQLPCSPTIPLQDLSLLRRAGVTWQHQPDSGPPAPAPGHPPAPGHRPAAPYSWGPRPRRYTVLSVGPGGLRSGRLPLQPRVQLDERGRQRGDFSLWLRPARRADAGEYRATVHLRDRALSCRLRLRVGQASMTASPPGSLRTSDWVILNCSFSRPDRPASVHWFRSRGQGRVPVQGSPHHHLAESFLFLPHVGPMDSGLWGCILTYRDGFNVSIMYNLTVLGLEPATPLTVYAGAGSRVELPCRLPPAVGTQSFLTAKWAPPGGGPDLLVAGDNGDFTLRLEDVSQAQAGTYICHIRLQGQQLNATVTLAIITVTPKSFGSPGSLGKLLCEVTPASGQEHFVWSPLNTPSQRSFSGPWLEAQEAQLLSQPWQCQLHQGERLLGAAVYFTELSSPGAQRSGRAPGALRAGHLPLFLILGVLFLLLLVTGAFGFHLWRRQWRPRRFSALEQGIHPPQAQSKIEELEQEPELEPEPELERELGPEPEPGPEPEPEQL
# Tests used:
# [1] = molecular target: T1, human LAG-3 (full length, on the cell …); assay: FACS, HEK293-hLAG-3; 0.064 nM
# From the text: (§1) The pIRES plasmid with the monkey-derived full-length gene was transfected into the HEK293 cell line to construct a HEK293 stable cell line containing monkey LAG-3 (herein referred to as HEK293-cLAG-3 stable cell line). The HEK293-hLAG-3 stable cell line and HEK293-cLAG-3 stable cell line were expanded in a T-75 cell culture flask to a 90% confluence. The medium was aspirated, and the cells were washed with HBSS (Hanks' Balanced Salt Solution) 1-2 times, then treated with a enzyme-free cell dissociation fluid (Versene solution: Life technology) and the cells were collected. The cells were washed with HBSS buffer for 1-2 times. After counted, the cells were diluted with HBSS to 1-2×10⁶ cells per ml, added with 1% goat serum blocking solution, incubated on ice for 20-30 minutes, and then washed with HBSS for 2 times by centrifugation. The collected cells were suspended in the FACS buffer (HBSS+1% BSA) to 2×10⁶ cells/ml, added as 100 microliters per well to a 96-well FACS reaction plate, added with 100 microliters per well of the antibody sample to be tested, incubated on ice for 1-2 hours. The plate was washed twice with the FACS buffer by centrifugation, added with 100 microliters of fluorescent (Alexa 488)-labeled secondary antibodies per well, and incubated on ice for 0.5-1.0 hours. The plate was washed 2-3 times with FACS buffer by centrifugation, added with 100 μl fixative solution (4% Paraformaldehyde) per well to suspend the cells. 5-10 minutes later, it was washed 1-2 times with FACS buffer by centrifugation. The cells were suspended with 100 microliters of FACS buffer, FACS (FACSCalibur, BD) was used for detection and the results were analyzed.
# [2] = molecular target: T2, monkey LAG-3 (full length, on the cell …); assay: FACS, HEK293-cLAG-3; 200.000 nM
# From the text: as §1
# [3] = molecular target: T2, monkey LAG-3 (full length, on the cell …); assay: FACS, HEK293-cLAG-3; 40.000 nM
# From the text: as §1
# [4] = molecular target: T3, hFc tagged monkey LAG-3 protein …; assay: ELISA, cLAG-3-hFc coated; 0.0007 nM
# Procedure: The plate was sealed with plastic film and incubated overnight at 4° C. The plate was washed 2 times with the plate washing solution (PBS+0.01% Tween20) on the next day, and added with the blocking solution (PBS+0.01% Tween20+1% BSA) and blocked at room temperature for 1-2 hours. The blocking solution was poured out, and the plate was added with 50-100 μl of the antibody sample to be tested to each well, incubated at 37° C. for 1-2 hours, and washed 2-3 times with a plate washing solution (PBS+0.01% Tween20). HRP (horseradish peroxidase) labeled secondary antibody was added, and the plate was incubated at 37° C. for 1-2 hours, and washed 2-3 times with a plate washing solution (PBS+0.01% Tween20). 100 μl of TMB substrate was added to each well. After incubated at room temperature for 15-30 minutes, the plate was added with 100 μl of stop solution (1.0N HCl) to each well.
# [5] = molecular target: T4, monkey LAG-3 on cells (HEK293-cLAG-3 …); assay: FACS, HEK293-cLAG-3, antibody 0.064 nM
# From the text: as §1
Binder,Mean fluorescence intensity [1],Mean fluorescence intensity [2],Mean fluorescence intensity [3],OD450 [4],Mean fluorescence intensity [5]
"405B8H3 (mouse antibody purified from hybridoma) (antibody, V domains shown, also called mAb103-405B8H3; 405B81-13) VH: QVQLQQSGAELVRPGASVTLSCKASGYTFTDYEMHWVKQTPVHGLEWIGATDPETGNSAYNQKFKGKAIMTADKSSSTAYMELRSLTSEDSAVYYCISTGWNDWGQGTSLTVSS VL: DIKMTQSPSSMYASLGERVTITCKASQDINSYLSWFQQKPGKSPKTLIYRADRLLDGVPSRFSGSGSGQDYSLTISSLEYGDMGIYYCLQYDEFPYTFGGGTKLEIK",8.7 MFI,139 MFI,108 MFI,–,–
"405B8H3 (LAG-3 mouse-human chimeric antibody) (antibody, V domains shown, also called mouse-human chimeric antibody 405B8H3) VH: QVQLQQSGAELVRPGASVTLSCKASGYTFTDYEMHWVKQTPVHGLEWIGATDPETGNSAYNQKFKGKAIMTADKSSSTAYMELRSLTSEDSAVYYCISTGWNDWGQGTSLTVSS VL: DIKMTQSPSSMYASLGERVTITCKASQDINSYLSWFQQKPGKSPKTLIYRADRLLDGVPSRFSGSGSGQDYSLTISSLEYGDMGIYYCLQYDEFPYTFGGGTKLEIK",–,–,–,0.21 OD450,–
"105F1E10 (LAG-3 mouse-human chimeric antibody) (antibody, V domains shown) VH: EVQLQQSGPELVKPGASVKMSCRASGYTFTDFKMHWMKQSHGKSLEWIGYIAPNNGGTAYNQKFRGKATLTVNESSNTAYMELRSLTSEDSAVYYCVDWDDVDYWGQGTTLTVSS VL: DIKMTQSPSSMYASLGERVTITCKASQDINSYLSWFQQKSGKSPKTLIYRANRLVDGVPSRFSGSGSGQDYSLTISSLEYEDMGIYYCLQYVEFPLTFGAGTKLELK",–,–,–,0.16 OD450,–
"105F1E10 (mouse antibody purified from hybridoma) (antibody, V domains shown, also called mAb009-105F1E10) VH: EVQLQQSGPELVKPGASVKMSCRASGYTFTDFKMHWMKQSHGKSLEWIGYIAPNNGGTAYNQKFRGKATLTVNESSNTAYMELRSLTSEDSAVYYCVDWDDVDYWGQGTTLTVSS VL: DIKMTQSPSSMYASLGERVTITCKASQDINSYLSWFQQKSGKSPKTLIYRANRLVDGVPSRFSGSGSGQDYSLTISSLEYEDMGIYYCLQYVEFPLTFGAGTKLELK",8.6 MFI,120 MFI,87 MFI,–,–
"409D4E10 (mouse antibody purified from hybridoma) (antibody, V domains shown, also called mAb112-409D4E10) VH: QVQLQQSGAELVRPGASVTLSCKASGNTFTDYEMHWVKQTPVHGLEWIGATDPETDNTAYNQKFKGKAILTTDKSSSTAYMELRSLTSEDSAVYYCITSGWNDWGQGTSLTVSS VL: DIKMTQSPSSMYASLGERVTITCKASQDINSYLSWFQQKPGKSPKTLIYRANRLLDGVPSRFSGSGSGQDYSLTISSLEYEDMGIYYCLQYNEFPYTFGGGTKLEIK",4.9 MFI,153 MFI,130 MFI,–,–
"409B11E12 (LAG-3 mouse-human chimeric antibody) (antibody, V domains shown) VH: QVQLQQSGAELVRPGASVTLSCKASGYTFTDYEMHWVKQTTVHGLEWIGATDPETSYSAYNQKFKGKAILTADKSSSTAYMELRSLTSEDSAVYYCIATGWNDWGQGTSLTVSS VL: DLKMTQSPSSMYASLGERVTITCKASQDINSYLSWFQQKPGKSPKTLIYRANRLLDGVPSRFSGSGSGQDYSLTISSLEYEDMGIYYCLQYDEFPYTFGGGTKLEIK",–,–,–,0.17 OD450,–
"409D4E10 (LAG-3 mouse-human chimeric antibody) (antibody, V domains shown) VH: QVQLQQSGAELVRPGASVTLSCKASGNTFTDYEMHWVKQTPVHGLEWIGATDPETDNTAYNQKFKGKAILTTDKSSSTAYMELRSLTSEDSAVYYCITSGWNDWGQGTSLTVSS VL: DIKMTQSPSSMYASLGERVTITCKASQDINSYLSWFQQKPGKSPKTLIYRANRLLDGVPSRFSGSGSGQDYSLTISSLEYEDMGIYYCLQYNEFPYTFGGGTKLEIK",–,–,–,0.27 OD450,–
"409B11E12 (mouse antibody purified from hybridoma) (antibody, V domains shown, also called mAb104-409B11E12) VH: QVQLQQSGAELVRPGASVTLSCKASGYTFTDYEMHWVKQTTVHGLEWIGATDPETSYSAYNQKFKGKAILTADKSSSTAYMELRSLTSEDSAVYYCIATGWNDWGQGTSLTVSS VL: DLKMTQSPSSMYASLGERVTITCKASQDINSYLSWFQQKPGKSPKTLIYRANRLLDGVPSRFSGSGSGQDYSLTISSLEYEDMGIYYCLQYDEFPYTFGGGTKLEIK",5 MFI,134 MFI,102 MFI,–,–
"556F6B8 mouse-human chimeric antibody (antibody, V domains shown, also called mAb123-556F6B8; 556F8B8) VH: RVQLKQSGPGLVQPSQSLSITCTVSGFSLIKYGVHWVRQSPGEGLEWLGVIWRGGITDYNAAFMSRLSITKDNSKSQVFFKMNSLQADDTAIYYCAKWDGPLAMDYWGQGTSVTVSS VL: DIVMTQSHKFLSTSVGDRVSITCKASQDVGTTVAWYQQKPGQSPKLLIYWASTRHTGVPDRFTGSGSGTDFTLTISNVQSEDLADYFCQQYSSYPYTFGGGTKLEIK",–,–,–,–,4.45
"556F6B8 (LAG-3 mouse-human chimeric antibody) (antibody, V domains shown, also called 556F8B8) VH: RVQLKQSGPGLVQPSQSLSITCTVSGFSLIKYGVHWVRQSPGEGLEWLGVIWRGGITDYNAAFMSRLSITKDNSKSQVFFKMNSLQADDTAIYYCAKWDGPLAMDYWGQGTSVTVSS VL: DIVMTQSHKFLSTSVGDRVSITCKASQDVGTTVAWYQQKPGQSPKLLIYWASTRHTGVPDRFTGSGSGTDFTLTISNVQSEDLADYFCQQYSSYPYTFGGGTKLEIK",–,–,–,0.21 OD450,–
"556F6B8 (mouse antibody purified from hybridoma) (antibody, V domains shown, also called mAb123-556F6B8) VH: RVQLKQSGPGLVQPSQSLSITCTVSGFSLIKYGVHWVRQSPGEGLEWLGVIWRGGITDYNAAFMSRLSITKDNSKSQVFFKMNSLQADDTAIYYCAKWDGPLAMDYWGQGTSVTVSS VL: DIVMTQSHKFLSTSVGDRVSITCKASQDVGTTVAWYQQKPGQSPKLLIYWASTRHTGVPDRFTGSGSGTDFTLTISNVQSEDLADYFCQQYSSYPYTFGGGTKLEIK",6.8 MFI,52.2 MFI,51 MFI,–,–
